Columns and labels:
[1] = target: huIL-17RA-FLAG-polyHis (human) (UniProt Q96F46); test: multiplexed binning, huIgG row/col L (IL-17RA on AMH19/AML19 bead)
[2] = target: huIL-17RA-FLAG-polyHis (human) (UniProt Q96F46); test: multiplexed binning, huIgG row/col I (IL-17RA on AMH22/AML22 bead)
[3] = target: huIL-17RA-FLAG-polyHis (human) (UniProt Q96F46); test: multiplexed binning, huIgG row/col K (IL-17RA on AMH14/AML14 bead)

huIgG (antibody)
normalized MFI [1]: -36 | normalized MFI [2]: -72 | normalized MFI [3]: -235

Reference: US20120308566A1
